The source of these data is article PMC8993412.

For test [1], the target named is SARS-CoV-2 Nsp7 (recombinant) (SARS-CoV-2) (UniProt P0DTD1). As to the kind of experiment: ELISA. (An ELISA detects its analyte on a solid surface through an enzyme-linked reagent.)
Test [2] addresses SARS-CoV-2 Nsp15 (recombinant) (SARS-CoV-2) (UniProt P0DTD1). As to the kind of experiment: ELISA.

B1: IgG 16658 (anti-Nsp7) (antibody, V domains shown)
VH: EVQLVESGGGLVQPGGSLRLSCAASGFNLSYYSIHWVRQAPGKGLEWVASIYPYYSYTYYADSVKGRFTISADTSKNTAYLQMNSLRAEDTAVYYCARVGFDYWGQGTLVTVSS
VL: DIQMTQSPSSLSASVGDRVTITCRASQSVSSAVAWYQQKPGKAPKLLIYSASSLYSGVPSRFSGSRSGTDFTLTISSLQPEDFATYYCQQYAGLITFGQGTKVEIK
In general, EC50 refers to the midpoint of the concentration-response curve. Regarding B1, the half-maximal effective concentration (EC50) in test [1] stood at 130 nM.

B2: IgG 16684 (anti-Nsp15) (antibody, V domains shown)
VH: EVQLVESGGGLVQPGGSLRLSCAASGFNFSSSSIHWVRQAPGKGLEWVASIYSSYGYTYYADSVKGRFTISADTSKNTAYLQMNSLRAEDTAVYYCARVSYYYPYSWYFYGYYGGLDYWGQGTLVTVSS
VL: DIQMTQSPSSLSASVGDRVTITCRASQSVSSAVAWYQQKPGKAPKLLIYSASSLYSGVPSRFSGSRSGTDFTLTISSLQPEDFATYYCQQSSYSLITFGQGTKVEIK
Consider B2, for which the EC50 in test [2] was 19 nM.
